Experimental findings from PMC10618255, “Cryo-EM structure of human O-GlcNAcylation enzyme pair OGT-OGA complex” (Nature Communications, 2023) are described below.

The labels stand for the following.
B2: full-length human OGT (O-GlcNAc transferase), C-terminal His6 (enzyme, UniProt O15294 1-1046, looked up)
chain: MASSVGNVADSTEPTKRMLSFQGLAELAHREYQAGDFEAAERHCMQLWRQEPDNTGVLLLLSSIHFQCRRLDRSAHFSTLAIKQNPLLAEAYSNLGNVYKERGQLQEAIEHYRHALRLKPDFIDGYINLAAALVAAGDMEGAVQAYVSALQYNPDLYCVRSDLGNLLKALGRLEEAKACYLKAIETQPNFAVAWSNLGCVFNAQGEIWLAIHHFEKAVTLDPNFLDAYINLGNVLKEARIFDRAVAAYLRALSLSPNHAVVHGNLACVYYEQGLIDLAIDTYRRAIELQPHFPDAYCNLANALKEKGSVAEAEDCYNTALRLCPTHADSLNNLANIKREQGNIEEAVRLYRKALEVFPEFAAAHSNLASVLQQQGKLQEALMHYKEAIRISPTFADAYSNMGNTLKEMQDVQGALQCYTRAIQINPAFADAHSNLASIHKDSGNIPEAIASYRTALKLKPDFPDAYCNLAHCLQIVCDWTDYDERMKKLVSIVADQLEKNRLPSVHPHHSMLYPLSHGFRKAIAERHGNLCLDKINVLHKPPYEHPKDLKLSDGRLRVGYVSSDFGNHPTSHLMQSIPGMHNPDKFEVFCYALSPDDGTNFRVKVMAEANHFIDLSQIPCNGKAADRIHQDGIHILVNMNGYTKGARNELFALRPAPIQAMWLGYPGTSGALFMDYIITDQETSPAEVAEQYSEKLAYMPHTFFIGDHANMFPHLKKKAVIDFKSNGHIYDNRIVLNGIDLKAFLDSLPDVKIVKMKCPDGGDNADSSNTALNMPVIPMNTIAEAVIEMINRGQIQITINGFSISNGLATTQINNKAATGEEVPRTIIVTTRSQYGLPEDAIVYCNFNQLYKIDPSTLQMWANILKRVPNSVLWLLRFPAVGEPNIQQYAQNMGLPQNRIIFSPVAPKEEHVRRGQLADVCLDTPLCNGHTTGMDVLWAGTPMVTMPGETLASRVAASQLTCLGCLELIAKNRQEYEDIAVKLGTDLEYLKKVRGKVWKQRISSPLFNTKQYTMELERLYLQMWEHYAAGNKPDHMIKPVEVTESA
notes: human O-GlcNAc transferase (OGT), full length, UniProt O15294; Scissor-shaped homodimer by cryo-EM; also called OGT WT; His6-tagged OGT; source: E. coli BL21 (DE3), purified (Ni-NTA, Resource Q, Superose 6); for the OGT-OGA complex co-expressed with OGA in BL21 (DE3); not shown: His6, C-terminal, kept

For series [1] the following is noted: O-GlcNAc at S405.
For series [2], the target named is B2. The series is described as follows: pull-down; GST pull-down: GST-OGA bait on Glutathione Sepharose 4B, His6-tagged OGT or mutants as prey; all proteins 1 mg/ml; 25 mM Tris pH 8.0, 150 mM NaCl, 2 mM DTT, 0.05% NP40; 2 h at 4 °C; SDS-PAGE with Coomassie staining. Conditions: both partners purified.
Series [3] deals with the molecule itself. The experiment in a line: cryo-EM structure; single-particle cryo-EM of full-length human OGT alone, incubated with 1 mg/ml UDP-GlcNAc on ice; overall resolution 3.69 Å.

On to “OGA (O-GlcNAcase): OGT H508A mutant bound to OGA”, for which the enzymatic_activity entry in series [1] is recorded as “no change”.

B1: GST-OGA (residues 371-440) (domain or fragment, human, UniProt O60502 371-440, looked up)
chain: DVLYSPQMALKLALTEWLQEFGVPHQYSSRQVAHSGAKASVVDGTPLVAAPSLNATTVVTTVYQEPIMSQ
notes: human OGA, residues 371-440, UniProt O60502, cloned into pGEX-6P-1; also called GST-OGA fragment; source: E. coli BL21 (DE3), purified (Glutathione Sepharose 4B, Resource Q, Superose 6)
As for B1, the binding result in series [2] is given as “binds”.
Consider B2, for which the “stoichiometry N” value in series [3] was 2.

One may read the stoichiometry N as the number of molecules, sites or subunits per partner or assembly.
